B1: Hairpin Ribozyme (parent)
chain: GUCCUCUUUCACGUGCGCGUGAAAGAGAGAAGUGAACCAGAGAAACACACGUUGUGGUAUAUUACCUGGUA

Variants of: B1
Assay: self-cleavage, relative activity (ratio to wild type); higher = more cleavage; co-transcriptional

Variant	self-cleavage
GUCCUCUUUCACGUGCGCGUAAAAGAGAGAAGUGAACCAGAGAAACACACGUUGUGGUUUAUUACCUGGUA	0.142
GUCCUCUUUCACGUGCGCGGGAAAGAGAGAAGUGAACCAGAGAAACACACGUUGUGGUAUACUACCUGGUA	0.188
GUCCUCUUUCACGUGCGCGUAAAAGAGAGAAGUGAACCAGAGAAUCACACGUUGUGGUAUAUUACCUGGUA	0.286
GUCCUCUUUCACGUGCGCGUAAAAGAGAGAAGUGAACCAGAGUAACACACGUUGUGGUAUAUUACCUGGUA	0.123
GUCCUCUUUCACGUGCGCGUAAAAGAGAGAAGUGAACCAGAGCAACACACGUUGUGGUAUAUUACCUGGUA	0.153
GUCCUCUUUCACGUGCGCGGGAAAGAGAGAAGUGAACCACAGAAACACACGUUGUGGUAUAUUACCUGGUA	0.188
GUCCUCUUUCACGUGCGCGUAAAAGAGAGAAGUGAACCAGAGAAACACACGUUGUGGUAUAUUACCUGGUG	0.854
GUCCUCUUUCACGUGCGCGUAAAAGAGAGAAGUGAACCAGAGAAACACACGUUGUGGUAUAUUACCUGGUC	1.23
GUCCUCUUUCACGUGCGCGUAAAAUAGAGAAGUGAACCAGAGAAACACACGUUGUGGUAUAUUACCUGGUA	0.426
GUCCUCUUUCACGUGCGCGUAAAAGAGAGCAGUGAACCAGAGAAACACACGUUGUGGUAUAUUACCUGGUA	0.128
GUCCUCUUUCACGUGCGCGUAAAAGAGAGAAGUGAACCUGAGAAACACACGUUGUGGUAUAUUACCUGGUA	0.346
GUCCUCUUUCACGUGCGCGUAAAAGAGAGAAGUGAACCCGAGAAACACACGUUGUGGUAUAUUACCUGGUA	0.467
GUCCUCUUUCACGUGCGCGGGAAAGAGAGAAGUGAACCAGAGAAACACACGUUGUGAUAUAUUACCUGGUA	0.195
GUCCUCUUUCACGUGCGCGGGAAAGAGAGAAGUGAACCAGAGAAACACAGGUUGUGGUAUAUUACCUGGUA	0.225
GUCCUCUUUCACGUGCGCGGUAAAGAGAGAAGUGAACCAGAGAAACACACGUUGUGGUAUAUUACCUGGUA	0.754
GUCCUCUUUCACGUGCGCGUAAAUGAGAGAAGUGAACCAGAGAAACACACGUUGUGGUAUAUUACCUGGUA	0.513
GUCCUCUUUCACGUGCGCGUAAAAGAGAGAAGUGAUCCAGAGAAACACACGUUGUGGUAUAUUACCUGGUA	0.503
GUCCUCUUUCACGUGCGCGUAAAAGAGAGAAGUGACCCAGAGAAACACACGUUGUGGUAUAUUACCUGGUA	0.605
GUCCUCUUUCACGUGCGCGGGAAAGAGAGAAGUGAACCAGAGAAACACACGUUAUGGUAUAUUACCUGGUA	0.417

Variant	self-cleavage
GUCCUCUUUCACGUGCGCGGGAAAGAGAGAAGUGAACCAGAGAAACACACGUUUUGGUAUAUUACCUGGUA	0.595
GUCCUCUUUCACGUGCGCGGGAAAGAGAGAACUGAACCAGAGAAACACACGUUGUGGUAUAUUACCUGGUA	0.105
GUCCUCUUUCACGUGCGCGGGAAAGAGAGAAUUGAACCAGAGAAACACACGUUGUGGUAUAUUACCUGGUA	0.162
GUCCUCUUUCACGUGCGCGUAAAAGAGAGAAGUGAACCAGAGAAAAACACGUUGUGGUAUAUUACCUGGUA	0.149
GUCCUCUUUCACGUGCGCGGGAAAGAGAGAAGUGAACUAGAGAAACACACGUUGUGGUAUAUUACCUGGUA	0.542
GUCCUCUUUCACGUGCGCGGGAAAGAGAGAAGUGAACAAGAGAAACACACGUUGUGGUAUAUUACCUGGUA	0.184
GUCCUCUUUCACGUGCGCGGGAAAGAGAGAAGUCAACCAGAGAAACACACGUUGUGGUAUAUUACCUGGUA	1.14
GUCCUCUUUCACGUGCGCGGGAAAGAGAGAAGUAAACCAGAGAAACACACGUUGUGGUAUAUUACCUGGUA	1.19
GUCCUCUUUCACGUGCGCGGGAAAGAGAGAAGUGAACCAGAGAAACACACGUUGUGGUAUAUUACGUGGUA	0.219
GUCCUCUUUCACGUGCGCGGGAAAGAGAGAAGUGAACCAGAGAAACACACGUUGUGGUAUAUUACAUGGUA	0.0821
GUCCUCUUUCACGUGCGCGUAAAAGAGAGAAAUGAACCAGAGAAACACACGUUGUGGUAUAUUACCUGGUA	0.193
GUCCUCUUUCACGUGCGCGUAAAAGAGAGAAUUGAACCAGAGAAACACACGUUGUGGUAUAUUACCUGGUA	0.0748
GUCCUCUUUCACGUGCGCGUAAAAGAGAGAAGUGAAUCAGAGAAACACACGUUGUGGUAUAUUACCUGGUA	0.538
GUCCUCUUUCACGUGCGCGUAAAAGAGAGAAGUGAAGCAGAGAAACACACGUUGUGGUAUAUUACCUGGUA	0.344
GUCCUCUUUCACGUGCGCGUAAAAGAGAGAAGUGAAACAGAGAAACACACGUUGUGGUAUAUUACCUGGUA	0.269
GUCCUCUUUCACGUGCGCGUAAAAGAGACAAGUGAACCAGAGAAACACACGUUGUGGUAUAUUACCUGGUA	0.168
GUCCUCUUUCACGUGCGCGUAAAAGAGAGAAGUGGACCAGAGAAACACACGUUGUGGUAUAUUACCUGGUA	0.729
GUCCUCUUUCACGUGCGCGGGAAAGAGAAAAGUGAACCAGAGAAACACACGUUGUGGUAUAUUACCUGGUA	0.0828
GUCCUCUUUCACGUGCGCGGGAAAGAGACAAGUGAACCAGAGAAACACACGUUGUGGUAUAUUACCUGGUA	0.18
